Assay results reported in patent publication US11866736B2, “Protein prostheses for mitochondrial diseases or conditions” (The General Hospital Corporation, priority 2015, dated 2024).

Columns and labels:
[1] = system: HeLa Tet3G cells; assay: Total NAD+/NADH ratio by HPLC; type: cell-based, human; details: doxycycline-inducible expression
Experimental: One million HeLa Tet3G Luciferase, LbNOX or mitoLbNOX cells were seeded per a 10 cm plate in 10 ml of DMEM (DMEM (US Biological, D9800), 3.7 g/L NaHCO3, 10% dialyzed FBS (Life Technologies, 26400-044)). Twenty four hours and 1 hour before extraction, media was exchanged to 10 ml of DMEM without pyruvate (DMEM (US Biological, D9802), 15.9 mg/L phenol red, 3.7 g/L NaHCO3, 10% dialyzed FBS (Life Technologies, 26400-044)) with or without 300 ng/ml doxycycline. The media that was used 1 hour before extraction was preincubated overnight in tissue culture incubator without cells. Media was quickly aspirated, cells rinsed with 15 ml of ice-cold PBS, transferred to dry ice and 4 ml of dry ice cold solution of 80% methanol: 20% water (spiked with 5 μM Sodium L-Lactate-3,3,3-D3 and 0.2 μM Sodium [3-^13C]Pyruvate) was added and quickly spread around by tilting the plate. The whole procedure from aspiration of media to adding 80% methanol solution took about ˜15 seconds. The plate was transferred on dry ice to −80° C. freezer and incubated for 15 min. […]
Metabolites were analyzed by ion exchange chromatography using μBondapak NH2 300×3.9-mm column (Waters, WAT084040) attached to Agilent 1260 HPLC system. […] Absorbance was monitored at […] for NADH. […] Energy charge calculated ([ATP]+0.5 [ADP])/([ATP]+[ADP]+[AMP]) was usually ˜0.95.

[2] = system: primary rat hepatocytes; assay: Gluconeogenesis in primary hepatocytes (adenoviral transduction); type: cell-based; details: adenovirus transduction, 5 mM lactate, glucose measured after 6 hours
Text: Two custom adenoviruses (Adenovirus Type 5 (dE1/E3)) were produced by Vector Biolabs. The same LbNOX and mitoLbNOX nucleotide sequences were used as in the lentiviral pLVX-TRE3G constructs. Adenoviral constructs encode for expression of either LbNOX or mitoLbNOX and eGFP, each gene driven by its own CMV promoter. Adenovirus with eGFP driven by the CMV promoter was used as a control (Vector Biolabs, 1060-HT).
Primary hepatocytes were obtained from the MGH Cell Resource Core, where they were freshly isolated by collagenase perfusion of livers from 24-hour fasted Sprague-Dawley rats and plated onto 24-well collagen-coated plates. Twenty four thousand cells were plated and cultured overnight in isolation media (DMEM with high glucose and pyruvate (Life Technologies, 11995)) supplemented with 20 ng/mL epidermal growth factor, 14.3 μg/mL glucagon, insulin, 7.5 μg/mL hydrocortisone, 10% FBS, 1% Penicillin-streptomycin). Cells were then transduced with the indicated adenoviral vector (MOI 20) and were serum starved by incubating in DMEM without additional supplementation overnight. […] Media was sampled 6 hours later and glucose was measured using the AMPLEX® Red Glucose Assay (Life-Technologies) and normalized to total protein levels from hepatocytes lysed in 1% SDS as measured by the BCA assay. […]

[3] = system: HeLa cells; assay: Tolerability of doxycycline-inducible expression in HeLa cells; type: cell-based, human
Text: Lentiviral infection was used to generate HeLa cells that expressed untargeted or mitochondria-targeted TPNOX (referred to as TPNOX and mitoTPNOX, respectively) under the control of a doxycycline-inducible promoter (TRE3G) (FIG. 16A).

Molecule | effect on total NAD+/NADH ratio [1] | gluconeogenesis from lactate [2] | tolerability of expression (cell morphology, viability, proliferation) [3]
LbNOX: water-forming NADH oxidase endogenous to Lactobacillus brevis; tested with C-terminal FLAG tag (protein, listed as Lactobacillus brevis, C-terminal FLAG tag) KVTVVGCTHAGTFAIKQILAEHPDAEVTVYERNDVISFLSCGIALYLGGKVADPQGLFYSSPEELQKLGANVQMNHNVLAIDPDQKTVTVEDLTNHAQTTESYDKLVMTSGSWPIVPKIPGIDSDRVKLCKNWAHAQALIEDAKEAKRITVIGAGYIGAELAEAYSTTGHDVTLIDAMARVMPKYFDADFTDVIEQDYRDHGVQLALGETVESFTDSATGLTIKTDKNSYETDLAILCIGFRPNTDLLKGKVDMAPNGAIITDDYMRSSNPDIFAAGDSAAVHYNPTHQNAYIPLATNAVRQGILVGKNLVKPTVKYMGTQSSSGLALYDRTIVSTGLTLAAAKQQGLNAEQVIVEDNYRPEFMPSTEPVLMSLVFDPDTHRILGGALMSKYDVSQSANTLSVCIQNENTIDDLAMVDMLFQPNFDRPFNYLNILAQAAQAKVAQSVNA | did not have a significant effect | significantly increased | 
TPNOX: NADPH-specific quintuple mutant (G159A/D177A/A178R/M179S/P184R) of LbNOX (protein) KVTVVGCTHAGTFAIKQILAEHPDAEVTVYERNDVISFLSCGIALYLGGKVADPQGLFYSSPEELQKLGANVQMNHNVLAIDPDQKTVTVEDLTNHAQTTESYDKLVMTSGSWPIVPKIPGIDSDRVKLCKNWAHAQALIEDAKEAKRITVIGAGYIAAELAEAYSTTGHDVTLIARSARVMRKYFDADFTDVIEQDYRDHGVQLALGETVESFTDSATGLTIKTDKNSYETDLAILCIGFRPNTDLLKGKVDMAPNGAIITDDYMRSSNPDIFAAGDSAAVHYNPTHQNAYIPLATNAVRQGILVGKNLVKPTVKYMGTQSSSGLALYDRTIVSTGLTLAAAKQQGLNAEQVIVEDNYRPEFMPSTEPVLMSLVFDPDTHRILGGALMSKYDVSQSANTLSVCIQNENTIDDLAMVDMLFQPNFDRPFNYLNILAQAAQAKVAQSVNA |  |  | safely tolerated
